The subject of one series is EL4Cter* peptide. It is filed as binding. Conditions: EL4Cter* 35 µM; increasing concentration of Z^x95; mean of three independent measurements.
Series [1] deals with MtPMT. Conditions: in vivo (M. smegmatis cell assay); cited from earlier work.
The test system of another series is PhoA. It counts as cell-based, E. coli.
For the next series, the system named is FasC^His. It counts as cell-based, M. smegmatis.
Series [2] relates to MtPMT. It counts as cell-based. Conditions: MtPMT mutant expressed in M. smegmatis ΔMsPMT; ELLA, relative to WT (100%) and No PMT (0%).

Where a chain is given by its changes, count along the chain named. Numbers in names are those of the source.

Regarding `Cc1cc(-n2c(C)cc(/C=C/C(=O)N3CCCC3c3cccs3)c2C)no1` (stereo not shown) [Z^x95, (2E)-3-[2,5-dimethyl-1-(5-methyl-1,2-oxazol-3-yl)-1H-pyrrol-3-yl]-1-[2-(thiophen-2-yl)pyrrolidin-1-yl]prop-2-en-1-one], in the series with EL4Cter* peptide, the “effect on thermal denaturation curves of EL4Cter*” value is given as “dose-dependent deviation of EL4Cter* thermal denaturation curves”. For the same molecule, the “effect on FasC mannosylation in vivo” value in the series on MtPMT [1] is given as “reduce FasC mannosylation in vivo”.

B1: MtPMT: M. tuberculosis protein-O-mannosyltransferase, wild type (protein, UniProt P9WN05 1-522, looked up)
Polyprenol-phosphate-mannose-- …: MTARPPESCVLAKDRPEEPVVPVVSPGPLVPVADFGPLDRLRGWIVTGLITLLATVTRFLNLGSLTDAGTPIFDEKHYAPQAWQVLNNHGVEDNPGYGLVVHPPVGKQLIAIGEAIFGYNGFGWRFTGALLGVVLVALVVRIVRRISRSTLVGAIAGVLLICDGVSFVTARTALLDGFLTFFVVAAFGALIVDRDQVRERMHIALLAGRSAATVWGPRVGVRWWRFGAGVLLGLACATKWSGVYFVLFFGAMALAFDVAARRQYQVQRPWLGTVRRDVLPSGYALGLIPFAVYLATYAPWFASETAIDRHAVGQAVGRNSVVPLPDAVRSLWHYTAKAFHFHAGLTNSAGNYHPWESKPWTWPMSLRPVLYAIDQQDVAGCGAQSCVKAEMLVGTPAMWWLAVPVLAYAGWRMFVRRDWRYAVVLVGYCAGWLPWFADIDRQMYFFYAATMAPFLVMGISLVLGDILYHPGQGSERRTLGLIVVCCYVALVVTNFAWLYPVLTGLPISQQTWNLEIWLPSWR
For the molecule B1, the “phosphatase activity on solid medium (chromogenic substrate)” value with PhoA is recorded as “remained uncolored”. Moreover, in the series with FasC^His, the “number of FasC glycosylation states” value was found to be 18.

B2: S365T (protein, UniProt P9WN05 1-522, looked up, variant S365T)
Polyprenol-phosphate-mannose-- …: B1 Polyprenol-phosphate-mannose-- … with S365T
For B2, the “FasC^His mannosylation / MtPMT enzymatic activity (ConA binding)” value in the series on MtPMT [2] is on record as “only partially impacted FasC mannosylation”.

B3: E74D75: di-substitution of D74E75 with the reversed doublet (protein, UniProt P9WN05 1-522, looked up, variant D74E E75D)
Polyprenol-phosphate-mannose-- …: B1 Polyprenol-phosphate-mannose-- … with D74E, E75D
In the case of B3, the “FasC^His mannosylation / MtPMT enzymatic activity (ConA binding)” value in the series with MtPMT [2] is “failed to restore Fasc^His mannosylation”.

B4: D176E (protein, UniProt P9WN05 1-522, looked up, variant D176E)
Polyprenol-phosphate-mannose-- …: B1 Polyprenol-phosphate-mannose-- … with D176E
As to B4, the “FasC^His mannosylation / MtPMT enzymatic activity (ConA binding)” value in the series with MtPMT [2] is recorded as “slightly restored mannosylation activity”.

B5: R441L (protein, UniProt P9WN05 1-522, looked up, variant R441L)
Polyprenol-phosphate-mannose-- …: B1 Polyprenol-phosphate-mannose-- … with R441L
With B5, the “FasC^His mannosylation / MtPMT enzymatic activity (ConA binding)” value in the series on MtPMT [2] is reported as “completely abolished FasC mannosylation”.

B6: D74E (protein, UniProt P9WN05 1-522, looked up, variant D74E)
Polyprenol-phosphate-mannose-- …: B1 Polyprenol-phosphate-mannose-- … with D74E
Regarding B6, in the series with MtPMT [2], the “FasC^His mannosylation / MtPMT enzymatic activity (ConA binding)” value is reported as “only marginally restored enzyme activity”.

B7: Y371A-L392A (protein, UniProt P9WN05 1-522, looked up, variant Y371A L392A)
Polyprenol-phosphate-mannose-- …: B1 Polyprenol-phosphate-mannose-- … with Y371A, L392A
Take B7: the “FasC^His mannosylation / MtPMT enzymatic activity (ConA binding)” value in the series on MtPMT [2] is given as “complete abolition of the mannosyl transferase activity”.

B8: W362A (protein, UniProt P9WN05 1-522, looked up, variant W362A)
Polyprenol-phosphate-mannose-- …: B1 Polyprenol-phosphate-mannose-- … with W362A
On to B8, for which the “FasC^His mannosylation / MtPMT enzymatic activity (ConA binding)” value with MtPMT [2] is on record as “absence of Fasc^His mannosylation”. In the series with PhoA, the “reduction of expression of mutated enzyme (PhoA activity of PhoA fusion)” value was “about 50%”.

B9: R441A (protein, UniProt P9WN05 1-522, looked up, variant R441A)
Polyprenol-phosphate-mannose-- …: B1 Polyprenol-phosphate-mannose-- … with R441A
B9: in the series with MtPMT [2], the “FasC^His mannosylation / MtPMT enzymatic activity (ConA binding)” value is “completely abolished FasC mannosylation”.

B10: D74A (protein, UniProt P9WN05 1-522, looked up, variant D74A)
Polyprenol-phosphate-mannose-- …: B1 Polyprenol-phosphate-mannose-- … with D74A
In the case of B10, in the series on MtPMT [2], the “FasC^His mannosylation / MtPMT enzymatic activity (ConA binding)” value is on record as “complete lack of mannosylation”.

B11: L392A (protein, UniProt P9WN05 1-522, looked up, variant L392A)
Polyprenol-phosphate-mannose-- …: B1 Polyprenol-phosphate-mannose-- … with L392A
For B11, the “reduction (drop) of apparent FasC mannosylation level” value with MtPMT [2] came to 73%.

B12: phenylalanine was substituted for Y444: MtPMT with phenylalanine substituted for Y444 (protein, UniProt P9WN05 1-522, looked up, variant Y444F)
Polyprenol-phosphate-mannose-- …: B1 Polyprenol-phosphate-mannose-- … with Y444F
As for B12, the “FasC^His mannosylation / MtPMT enzymatic activity (ConA binding)” value in the series on MtPMT [2] is given as “almost half of the FasC mannosylation level remained”.
